The text below walks through data of patent publication US20160348112.

The series concerns the target Clumping factor A (ClfA) (Staphylococcus aureus NRS384 (USA300)) (UniProt Q2G015). The series can be described thus: filter. As to conditions: BndU at every n (W); full-length clone also has fixed flanking regions not printed [BndU at 2,4,7,8,14,20,21,27,29,32,33,34,35,36,40]; SB18T, 5 mM MgCl2; full-length aptamer.

Chain of Clumping factor A (ClfA) (Staphylococcus aureus NRS384 (USA300)) (Q2G015 40-893): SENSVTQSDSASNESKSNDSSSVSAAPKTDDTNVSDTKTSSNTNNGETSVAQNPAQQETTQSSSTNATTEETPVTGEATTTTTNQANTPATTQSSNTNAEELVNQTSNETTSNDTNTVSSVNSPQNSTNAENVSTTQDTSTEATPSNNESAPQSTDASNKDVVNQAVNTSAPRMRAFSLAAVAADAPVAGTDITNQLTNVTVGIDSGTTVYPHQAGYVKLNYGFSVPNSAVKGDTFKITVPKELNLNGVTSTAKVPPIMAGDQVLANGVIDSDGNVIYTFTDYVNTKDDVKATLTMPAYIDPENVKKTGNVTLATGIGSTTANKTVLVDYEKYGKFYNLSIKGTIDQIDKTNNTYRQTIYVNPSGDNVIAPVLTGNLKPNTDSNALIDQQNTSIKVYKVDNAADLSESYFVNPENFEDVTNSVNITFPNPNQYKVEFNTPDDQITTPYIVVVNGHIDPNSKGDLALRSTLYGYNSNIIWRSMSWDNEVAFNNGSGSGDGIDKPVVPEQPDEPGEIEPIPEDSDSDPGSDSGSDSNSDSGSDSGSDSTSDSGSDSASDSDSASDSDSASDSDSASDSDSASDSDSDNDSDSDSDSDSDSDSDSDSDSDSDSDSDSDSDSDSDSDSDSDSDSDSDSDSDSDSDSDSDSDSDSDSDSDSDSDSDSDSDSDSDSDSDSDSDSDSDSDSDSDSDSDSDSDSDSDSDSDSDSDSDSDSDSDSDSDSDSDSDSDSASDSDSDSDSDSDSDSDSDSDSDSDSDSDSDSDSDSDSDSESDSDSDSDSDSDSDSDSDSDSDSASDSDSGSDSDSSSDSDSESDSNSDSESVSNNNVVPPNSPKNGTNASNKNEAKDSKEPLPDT

One may read the Kd as the free concentration of one partner at which half of the binding sites on the other are occupied at equilibrium, for simple one-to-one binding. Read a high Kd as lower affinity. The sequence “ATCTGGTTCAAAGTGGCGATTGGGCATCTGGTTTTTAAGT [4503-73]” returned a Kd of 0.79 nM.
